Data published in patent US20090004680A1.

Target: Mouse synaptosomes (BoNT/A acceptor on a mouse synaptosome preparation)

Active BoNT/A (botulinum neurotoxin type A) (from UniProt P0DPI0 2-1296)
maximum percent inhibition: 78%
